Experimental data taken from article PMC8049198.

Biological target: human prion protein (hPrP), amino acid residues 23-230 (human) (UniProt P04156)
Test: high-speed atomic force microscopy (HS-AFM)

Substance: human prion protein (hPrP), amino acid residues 23-230, P04156 23-230 (domain or fragment; other documents disagree on this pair)
- stoichiometry N: 6
